What was measured:
Type in all cases: binding, human
full-length SNX27 = experiment: nHU-MS, recombinant full-length SNX27 bait, total Jurkat extracts; settings: apparent, Fig. 4D, n = 6
Description: The empty His6-AviTag-MBP-TEV vector was used to produce biotinylated MBP for control experiments. Proteins were coexpressed with BirA biotin ligase (PET21a-BirA, Addgene, no. 20857) in Escherichia coli BL21(DE3) cells. At isopropyl-β-D-thiogalactopyranoside (IPTG) induction (1 mM IPTG at 18°C overnight), 50 μM biotin was added to the media. Harvested cells were lysed in a buffer containing 50 mM tris (pH 7.5), 150 to 300 mM NaCl, 50 μM biotin, 2 mM β-mercaptoethanol, cOmplete EDTA-free protease inhibitor cocktail (Roche, Basel, Switzerland), 1% Triton X-100, and trace amount of deoxyribonuclease, ribonuclease, and lysozyme. Lysates were frozen at −20°C before further purification steps. Lysates were sonicated and centrifuged for clarification. Expressed proteins were captured on in-house prepacked Ni-IDA (Protino Ni-IDA Resin, Macherey-Nagel, Duren, Germany) columns and were washed with at least 10 column volumes of cold wash buffer [50 mM tris (pH 7.5), 150 mM NaCl, and 2 mM β-mercaptoethanol] before elution with 250 mM imidazole. The Ni elution was collected directly on a preequilibrated amylose column (amylose high flow resin, New England Biolabs, Ipswich, MA). Amylose column was washed with 5 column volumes of cold wash buffer before fractionated elution in a buffer containing 25 mM Hepes (pH 7.5), 150 mM NaCl, 1 mM TCEP, 10% glycerol, 5 mM maltose, and cOmplete EDTA-free protease inhibitor cocktail. The concentration of proteins was determined by their ultraviolet absorption at 280 nm before aliquots were snap-frozen in liquid nitrogen and stored at −80°C.
(§1) For saturating streptavidin resin with biotinylated peptides or biotin, 50 μl of streptavidin resin was mixed with biotin or peptide at 40 to 60 μM concentration in 6 to 6.5 resin volume for 60 min. To saturate streptavidin resin with biotinylated proteins, 50 μl of streptavidin resin (Streptavidin Sepharose High Performance, Cytiva) was mixed with biotinylated MBP or MBP-PDZ at 40 to 50 μM concentration in 20× resin volume for 60 min. After saturation, resins were washed a single time [10 resin volume, holdup buffer: 50 mM tris (pH 7.5), 300 mM NaCl, and 1 mM TCEP, 0.22-μm filtered] and were depleted with biotin (10 resin volume, 10 min, holdup buffer supplemented with 100 μM biotin). Last, resins were washed two times (10 resin volume, holdup buffer).
(§2) For single-point nHU experiments carried out at ~10 μM bait concentration, 50 μl of saturated streptavidin resin was mixed with 200 μl of cell lysate (2 mg/ml). Titration experiments were carried out by mixing control and bait-saturated resin and keeping the total resin volume constant; e.g., ~5 μM bait concentration can be achieved by mixing 25 μl of bait-saturated streptavidin resin with 25 μl of control resin and 200 μl of cell lysate (2 mg/ml). Control and bait-saturated resins were prepared in larger amounts, and a serial dilution was prepared with these presaturated resins to achieve different resin ratios.
Unless specified elswhere, the nHU mixture was incubated at 4°C for 2 hours. After the incubation ended, the resin was separated from the supernatant by a brief centrifugation (15 s, 2000 g). Then, half of the supernatant was removed by pipetting without any delay to avoid any resin contamination; e.g., 100 μl of supernatant is collected if 200 μl of cell lysate was used as analyte. Alternatively, the supernatant can be centrifuged an additional time to clarify it further, removing any possible resin contamination. […]

SNX27_PDZ = experiment: nHU-MS, SNX27_PDZ bait, total Jurkat extracts, series 2 (Exploris MS); settings: SNX27_PDZ&Jurkat (Exploris)
Excerpt: (§3) To further establish the repeatability and robustness of the nHU-MS assay, we repeated the experiments using a different mass spectrometer and six different PDZ domain baits taken from SCRIB (PDZ_1 and PDZ_2), discs large MAGUK scaffold protein 1 (DLG1, PDZ_1, and PDZ_2), Tax1 binding protein 3 (TAX1BP3), and SNX27 (fig. S3B and table S1). […] Of the studied baits, the PDZ domain of SNX27 turned out to be the most promiscuous with 103 statistically significant interaction partners (while 180 SNX27 binding partners were identified in total on the basis of the three independent nHU-MS experiments).
as §1, §2
(§4) Unless specified elswhere, the nHU mixture was incubated at 4°C for 2 hours. After the incubation ended, the resin was separated from the supernatant by a brief centrifugation (15 s, 2000 g). Then, half of the supernatant was removed by pipetting without any delay to avoid any resin contamination; e.g., 100 μl of supernatant is collected if 200 μl of cell lysate was used as analyte. Alternatively, the supernatant can be centrifuged an additional time to clarify it further, removing any possible resin contamination. In principle, the separation of the supernatant should be as fast as possible since any delay can perturb the equilibrium. […] Alternatively, the resin can be separated from the supernatant using filter plates (e.g., various products of Millipore, Burlington, MA) or spin columns (e.g., Pierce spin cups—cellulose acetate filter from Thermo Fisher Scientific, Waltham, MA) to achieve faster separation.
The nHU samples were precipitated with trichloroacetic acid (TCA) 20% overnight at 4°C and centrifuged at 14,000 rpm for 10 min at 4°C. The protein pellets were washed twice with 1 ml of cold acetone and air-dried. […]
(§5) Samples were analyzed using an Ultimate 3000 nano-RSLC coupled in line via a nano-electrospray ionization source, with an LTQ-Orbitrap ELITE mass spectrometer (Thermo Fisher Scientific, San Jose, CA) or with the Orbitrap Exploris 480 mass spectrometer (Thermo Fisher Scientific, Bremen, Germany) equipped with a high field asymmetric ion mobility spectrometry (FAIMS) module. […]

SCRIB_PDZ_1 = experiment: nHU-MS, SCRIB_PDZ_1 bait, total Jurkat extracts (Exploris MS); settings: SCRIB_PDZ_1&Jurkat (Exploris)
Excerpt: as §3, §1, §2, §4
The nHU samples were precipitated with trichloroacetic acid (TCA) 20% overnight at 4°C and centrifuged at 14,000 rpm for 10 min at 4°C. The protein pellets were washed twice with 1 ml of cold acetone and air-dried. The protein extracts were solubilized in 8 M urea, reduced with 5 mM TCEP for 30 min, and alkylated with 10 mM iodoacetamide for 30 min in the dark. Double digestion was performed at 37°C with 500 ng of endoproteinase Lys-C (Wako, Richmond, USA) for 4 hours, followed by fourfold dilution and an overnight digestion with 500 ng of trypsin (Promega, Charbonnieres les Bains, France). Peptide mixtures were then desalted on a C18 spin-column and dried on a speed vacuum.
as §5

B1: WASH2: component of the WASH complex (protein)
chain: MTPVRMQHSLAGQTYAVPLIQPDLRREEAVQQMADALQYLQKVSGDIFSRISQQVEQSRSQVQAIGEKVSLAQAKIEKIKGSKKAIKVFSSAKYPAPERLQEYGSIFTGAQDPGLQRRPRHRIQSKHRPLDERALQEKLKDFPVCVSTKPEPEDDAEEGLGGLPSNISSVSSLLLFNTTENLYKKYVFLDPLAGAVTKTHVMLGAETEEKLFDAPLSISKREQLEQQVPENYFYVPDLGQVPEIDVPSYLPDLPGIANDLMYIADLGPGIAPSAPGTIPELPTFHTEVAEPLKVDLQDGVLTPPPPPPPPPPAPEVLASAPPLPPSTAAPVGQGARQDDSSSSASPSVQGAPREVVDPSGGRATLLESIRQAGGIGKAKLRSMKERKLEKKKQKEQEQVRATSQGGHLMSDLFNKLVMRRKGISGKGPGAGEGPGGAFARVSDSIPPLPPPQQPQAEEDEDDWES
- pKapp (full-length SNX27): 5.47

B2: SNX6: component of the SNX-BAR complex (protein, UniProt Q9UNH7 1-406, looked up)
Sorting nexin-6: MMEGLDDGPDFLSEEDRGLKAINVDLQSDAALQVDISDALSERDKVKFTVHTKSSLPNFKQNEFSVVRQHEEFIWLHDSFVENEDYAGYIIPPAPPRPDFDASREKLQKLGEGEGSMTKEEFTKMKQELEAEYLAIFKKTVAMHEVFLCRVAAHPILRRDLNFHVFLEYNQDLSVRGKNKKEKLEDFFKNMVKSADGVIVSGVKDVDDFFEHERTFLLEYHNRVKDASAKSDRMTRSHKSAADDYNRIGSSLYALGTQDSTDICKFFLKVSELFDKTRKIEARVSADEDLKLSDLLKYYLRESQAAKDLLYRRSRSLVDYENANKALDKARAKNKDVLQAETSQQLCCQKFEKISESAKQELIDFKTRRVAAFRKNLVELAELELKHAKGNLQLLQNCLAVLNGDT
- pKapp (full-length SNX27): 5.47

B3: DNAJC16 (protein, UniProt Q9Y2G8 26-782, looked up)
DnaJ homolog subfamily C …: LDFDPYRVLGVSRTASQADIKKAYKKLAREWHPDKNKDPGAEDKFIQISKAYEILSNEEKRSNYDQYGDAGENQGYQKQQQQREYRFRHFHENFYFDESFFHFPFNSERRDSIDEKYLLHFSHYVNEVVPDSFKKPYLIKITSDWCFSCIHIEPVWKEVIQELEELGVGIGVVHAGYERRLAHHLGAHSTPSILGIINGKISFFHNAVVRENLRQFVESLLPGNLVEKVTNKNYVRFLSGWQQENKPHVLLFDQTPIVPLLYKLTAFAYKDYLSFGYVYVGLRGTEEMTRRYNINIYAPTLLVFKEHINRPADVIQARGMKKQIIDDFITRNKYLLAARLTSQKLFHELCPVKRSHRQRKYCVVLLTAETTKLSKPFEAFLSFALANTQDTVRFVHVYSNRQQEFADTLLPDSEAFQGKSAVSILERRNTAGRVVYKTLEDPWIGSESDKFILLGYLDQLRKDPALLSSEAVLPDLTDELAPVFLLRWFYSASDYISDCWDSIFHNNWREMMPLLSLIFSALFILFGTVIVQAFSDSNDERESSPPEKEEAQEKTGKTEPSFTKENSSKIPKKGFVEVTELTDVTYTSNLVRLRPGHMNVVLILSNSTKTSLLQKFALEVYTFTGSSCLHFSFLSLDKHREWLEYLLEFAQDAAPIPNQYDKHFMERDYTGYVLALNGHKKYFCLFKPQKTVEEEEAIGSCSDVDSSLYLGESRGKPSCGLGSRPIKGKLSKLSLWMERLLEGSLQRFYIPSWPELD
- pKapp (nHU-MS) (SNX27_PDZ): 4.859
- pKapp (nHU-MS) (SCRIB_PDZ_1): 4.6996

B4: Strumpellin: component of the WASH complex (protein, UniProt Q12768 1-1159, looked up)
WASH complex subunit 5: MLDFLAENNLCGQAILRIVSCGNAIIAELLRLSEFIPAVFRLKDRADQQKYGDIIFDFSYFKGPELWESKLDAKPELQDLDEEFRENNIEIVTRFYLAFQSVHKYIVDLNRYLDDLNEGVYIQQTLETVLLNEDGKQLLCEALYLYGVMLLVIDQKIEGEVRERMLVSYYRYSAARSSADSNMDDICKLLRSTGYSSQPGAKRPSNYPESYFQRVPINESFISMVIGRLRSDDIYNQVSAYPLPEHRSTALANQAAMLYVILYFEPSILHTHQAKMREIVDKYFPDNWVISIYMGITVNLVDAWEPYKAAKTALNNTLDLSNVREQASRYATVSERVHAQVQQFLKEGYLREEMVLDNIPKLLNCLRDCNVAIRWLMLHTADSACDPNNKRLRQIKDQILTDSRYNPRILFQLLLDTAQFEFILKEMFKQMLSEKQTKWEHYKKEGSERMTELADVFSGVKPLTRVEKNENLQAWFREISKQILSLNYDDSTAAGRKTVQLIQALEEVQEFHQLESNLQVCQFLADTRKFLHQMIRTINIKEEVLITMQIVGDLSFAWQLIDSFTSIMQESIRVNPSMVTKLRATFLKLASALDLPLLRINQANSPDLLSVSQYYSGELVSYVRKVLQIIPESMFTSLLKIIKLQTHDIIEVPTRLDKDKLRDYAQLGPRYEVAKLTHAISIFTEGILMMKTTLVGIIKVDPKQLLEDGIRKELVKRVAFALHRGLIFNPRAKPSELMPKLKELGATMDGFHRSFEYIQDYVNIYGLKIWQEEVSRIINYNVEQECNNFLRTKIQDWQSMYQSTHIPIPKFTPVDESVTFIGRLCREILRITDPKMTCHIDQLNTWYDMKTHQEVTSSRLFSEIQTTLGTFGLNGLDRLLCFMIVKELQNFLSMFQKIILRDRTVQDTLKTLMNAVSPLKSIVANSNKIYFSAIAKTQKIWTAYLEAIMKVGQMQILRQQIANELNYSCRFDSKHLAAALENLNKALLADIEAHYQDPSLPYPKEDNTLLYEITAYLEAAGIHNPLNKIYITTKRLPYFPIVNFLFLIAQLPKLQYNKNLGMVCRKPTDPVDWPPLVLGLLTLLKQFHSRYTEQFLALIGQFICSTVEQCTSQKIPEIPADVVGALLFLEDYVRYTKLPRRVAEAHVPNFIFDEFRTVL
- pKapp (full-length SNX27): 4.94

— PMC9770967, “Native holdup (nHU) to measure binding affinities from cell extracts” (Science Advances, 2022)
